What was measured:
Assay in all cases: purified protein
purified protein [1] = substrate: NC(=O)C1=CN([C@@H]2O[C@H](COP(=O)(O)OP(=O)(O)OC[C@H]3O[C@@H](n4cnc5c(N)ncnc54)[C@H](OP(=O)(O)O)[C@@H]3O)[C@@H](O)[C@H]2O)C=CC1; conditions: 0.3 mM AcAcCoA, pH 7 TRIS-HCl, 35°C, varied: cofactor
purified protein [2] = substrate: CC(=O)CC(=O)SCCNC(=O)CCNC(=O)[C@H](O)C(C)(C)COP(=O)(O)OP(=O)(O)OC[C@H]1O[C@@H](n2cnc3c(N)ncnc32)[C@H](O)[C@@H]1OP(=O)(O)O; conditions: 0.2 mM NADPH, pH 7 TRIS-HCl, 35°C
purified protein [3] = substrate: C[C@@H](O)CC(=O)SCCNC(=O)CCNC(=O)[C@H](O)C(C)(C)COP(=O)(O)OP(=O)(O)OC[C@H]1O[C@@H](n2cnc3c(N)ncnc32)[C@H](O)[C@@H]1OP(=O)(O)O; conditions: oxidative direction, 2 mM NADP+, pH 7 TRIS-HCl, 70°C

B1: ACR (Saci_1104) (Sulfolobus acidocaldarius DSM 639) (protein)
chain: MYSLKDKVVVVTGSGRGIGRAIALRLAQEGSKIVVNAKKRAEEVNETVEMVKKIGGDAVGVLADVGTKEGCETLLKSTLDKFGVVDILVNNAGLGLFSLFMNADDKLIEKHISVDFKSVVYCSQAFAREMREGGEIVNIASIAGVLPAYGLSMYGAMKGAVISLTKYMALELAPKIRVNAIAPGWVKTKLGESMYKLLNMSEKEFVEKTTLMGKMLEPEDIAEFVTAILKIEGLTGQVFVVDAGESIKRGIA
Work on B1 yielded a Km (purified protein [1]) of 24 ± 3 µM, a Km (purified protein [2]) of 77 ± 9 µM and a kcat (purified protein [2]) of 0.586 s⁻¹. It also gave a Km (purified protein [3]) of 160 ± 12 µM and a kcat (purified protein [3]) of 0.435 s⁻¹.

Reference: paper doi:10.1101/2024.07.05.601840v1
